Article PMC5216119, “An allosteric conduit facilitates dynamic multisite substrate recognition by the SCF^Cdc4 ubiquitin ligase” (Nature Communications, 2017)
Numbering of substitutions follows the chain as printed. Like-named read-outs stand apart in the source and are kept apart here. Square brackets hold non-standard residues; d marks the D form. Ends that are not written are not given here. Peptide text beside a SMILES is read from it. pT = C[C@@H](OP(=O)(O)O)[C@H](N)C(=O)O; pS = N[C@@H](COP(=O)(O)O)C(=O)O

Key:
[1] = target: T1, R664Q Cdc4^WD40 (Saccharomyces cerevisiae, UniProt P07834, R664Q); type: binding, yeast; details: in vitro Trp fluorescence
T1 construct: Cdc4^WD40 (residues 367-744) was expressed from pET-Sumo (Invitrogen); His-SUMO (pET-Sumo vector) (N, cleaved yes); made in house; host or cells: Escherichia coli (host printed only for the NMR samples)
T1 sequence (P07834 367-744 R664Q): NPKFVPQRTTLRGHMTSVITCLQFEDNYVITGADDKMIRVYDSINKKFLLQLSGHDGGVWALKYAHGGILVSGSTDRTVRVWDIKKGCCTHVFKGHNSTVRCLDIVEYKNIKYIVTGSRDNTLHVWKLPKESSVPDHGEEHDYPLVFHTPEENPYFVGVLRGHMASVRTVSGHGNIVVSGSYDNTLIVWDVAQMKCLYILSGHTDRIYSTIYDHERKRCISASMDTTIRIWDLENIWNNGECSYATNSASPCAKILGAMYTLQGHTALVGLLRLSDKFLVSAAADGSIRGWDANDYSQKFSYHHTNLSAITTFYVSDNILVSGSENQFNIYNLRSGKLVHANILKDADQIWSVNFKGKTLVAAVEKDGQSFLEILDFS
Description: We assessed the contribution of the allosteric pocket to substrate interactions by mutation of positively charged Arg655 and Arg664 residues, both of which are required for SCF-I2 inhibition. We generated Arg655Gln and Arg664Gln substitution mutants to minimize disruptive steric effects on the allosteric pocket and WD40 domain.
The binding affinities of three different peptides (Sic1^20pS69, Sic1^20pS80 and Sic1^20pS69/S80) for wild-type and mutant (Arg664Gln) Cdc4^WD40 were measured by intrinsic Trp fluorescence-binding experiments. The measurements were carried out by using an ATF 105 spectrometer (AVIV Instruments, Lakewood, NJ) equipped with an automatic titrator. The binding of the peptide fragments were monitored by using intrinsic tryptophan fluorescence with an excitation wavelength of 298 nm and an emission wavelength of 366 nm. All measurements were performed in 50 mM Tris, 150 mM NaCl, 5 mM DTT, pH 7.5 at 20 °C. The concentration of Cdc4 was 0.5 μM for all measurements. […] Association constants were calculated using the formula Ka=1/Kd. Prism 4.0 software (GraphPad Software, San Diego, CA) was used for statistical analysis (non-paired Student t test), and P values <0.05 were considered significant. Each experiment was repeated at least three times.

[2] = target: T2, R655Q Cdc4^WD40 (Saccharomyces cerevisiae, UniProt P07834, R655Q); experiment: Intrinsic Trp fluorescence binding, R655Q Cdc4^WD40; set-up: species or system yeast; details: in vitro Trp fluorescence
T2 construct: Cdc4^WD40 (residues 367-744) was expressed from pET-Sumo (Invitrogen); His-SUMO (pET-Sumo vector) (N, cleaved yes); made in house; host or cells: Escherichia coli (host printed only for the NMR samples)

[3] = target: T3, R655Q Cdc4^WD40 (yeast, UniProt P07834 367-744, R655Q); experiment: other fluorescence titration; intrinsic Trp fluorescence (excitation 298 nm, emission 366 nm); 0.5 μM Cdc4, ligand titrated; 50 mM Tris, 150 mM NaCl, 5 mM DTT, pH 7.5, 20 °C; 1:1 stoichiometry assumed
T3 construct: Cdc4, yeast F-box protein, WD40 domain, residues 367-744, with Arg655Gln in the allosteric pocket; also called Arg655Gln Cdc4^WD40; source: E. coli, purified as the wild type (Ni-NTA, Ulp protease, Ni-NTA, Superdex 200)
T3 sequence (looked up): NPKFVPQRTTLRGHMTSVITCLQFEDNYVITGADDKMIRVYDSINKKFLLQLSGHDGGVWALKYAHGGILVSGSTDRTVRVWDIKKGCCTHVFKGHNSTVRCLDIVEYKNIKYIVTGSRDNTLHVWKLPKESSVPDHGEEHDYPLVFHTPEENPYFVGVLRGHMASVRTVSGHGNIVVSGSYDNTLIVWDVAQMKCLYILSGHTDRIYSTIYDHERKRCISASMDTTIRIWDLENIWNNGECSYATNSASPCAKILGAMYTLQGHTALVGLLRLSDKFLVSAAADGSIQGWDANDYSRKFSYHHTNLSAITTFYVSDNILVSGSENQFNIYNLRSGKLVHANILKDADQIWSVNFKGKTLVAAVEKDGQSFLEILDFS

[4] = target: T4, R664Q Cdc4^WD40 (yeast, UniProt P07834 367-744, R664Q); experiment: as above
T4 construct: Cdc4, yeast F-box protein, WD40 domain, residues 367-744, with Arg664Gln in the allosteric pocket; also called Arg664Gln Cdc4^WD40; mutant (Arg664Gln) Cdc4^WD40; source: E. coli, purified as the wild type (Ni-NTA, Ulp protease, Ni-NTA, Superdex 200)
T4 sequence (looked up): T3 sequence (looked up) with Q289R, R298Q

[5] = target: Cdc4^WD40 (isolated WD40 domain of the yeast F-box protein Cdc4, residues 367-744), wild type (yeast) (UniProt P07834); experiment: as above
[6] = target: T5, Cdc4^WD40 (isolated WD40 domain of the yeast F-box protein Cdc4, residues 367-744), wild type (yeast, UniProt P07834 367-744); experiment: NMR titration; 2D 13C-1H TROSY HMQC at 10 °C on 200 μM IM-labelled Cdc4^WD40 with increasing concentrations of unlabelled ligand; 100% D2O, 50 mM Na2HPO4 pH 8.0, 150 mM NaCl, 2 mM DTT; details: both partners purified
T5 construct: Cdc4, yeast F-box protein, WD40 domain, residues 367-744; For the NMR experiments the protein was U-[15N,2H], Ile-delta1-[13CH3], Met-epsilon-[13CH3] labelled (IM-labelled); also called wt Cdc4^WD40; Cdc4 WD40 domain; source: E. coli BL21(DE3) codonPlus, purified (Ni-NTA, Ulp protease, Ni-NTA, Superdex 200)
T5 sequence (looked up): T3 sequence (looked up) with Q289R

[7] = target: Cdc4; details: Sic1 phosphorylated on between 4 and 6 low-affinity CPD sites; read-out: Kd of high-affinity Sic1-Cdc4 interaction; cited from earlier work
Text: WD40 domains, and the related Kelch β-propeller domains, mediate protein interactions in many contexts and together form the largest domain family in the human genome. WD40 domain proteins are a predominant class of substrate receptor in the ubiquitin-proteasome system, found in F-box proteins and other subunits of the cullin-RING (CRL) ubiquitin ligases. The WD40 domain of the yeast F-box protein Cdc4 (Cdc4^WD40) recognizes substrates via phosphorylated motifs termed Cdc4 phosphodegrons (CPDs). One of the best characterized Cdc4 substrates is the cyclin dependent kinase inhibitor ...

[8] = target: T5, Cdc4^WD40 (isolated WD40 domain of the …); experiment: other fluorescence titration; intrinsic Trp fluorescence (excitation 298 nm, emission 366 nm); 0.5 μM Cdc4, ligand titrated; 50 mM Tris, 150 mM NaCl, 5 mM DTT, pH 7.5, 20 °C; 1:1 stoichiometry assumed; details: both partners purified
[9] = target: T4, R664Q Cdc4^WD40; experiment: as above; details: both partners purified
[10] = target: Cdc4-Skp1; details: read-out: Kd for pSic1-Cdc4-Skp1 by intrinsic tryptophan (Trp) fluorescence; cited from earlier work
[11] = target: T5, Cdc4^WD40 (isolated WD40 domain of the …); experiment: ITC; 20 °C; cell 30 μM Cdc4^WD40, syringe 100 μM pSic1; 50 mM Na2HPO4 pH 7.2, 150 mM NaCl, 2 mM β-mercaptoethanol; single-site binding model; details: both partners purified

CC(=O)NCC(=O)N[C@@H](CC(C)C)C(=O)N[C@@H](CC(C)C)C(=O)N[C@H](C(=O)N1CCC[C@H]1C(=O)N1CCC[C@H]1C(=O)N[C@@H](CCC(N)=O)C(=O)N[C@@H](CO)C(=O)NCC(N)=O)[C@@H](C)OP(=O)(O)O [CycE] (Ac-GLL[pT]PPQSG-NH2; N-terminus and C-terminus assumed)
change of affinity for Arg664Gln Cdc4^WD40 versus wild-type [1]: did not significantly reduce
change of affinity for Arg655Gln Cdc4^WD40 versus wild-type [2]: did not significantly reduce

CycE phosphopeptide (singly phosphorylated high-affinity CPD peptide derived from cyclin E)
Kd [3]: 2900 nM
Kd [4]: 1470 nM
Kd [5]: 2210 nM

B1: Ash1^18pT286/pT290/pS294 triphosphopeptide (unlabelled) (peptide)
peptide: AWSI[pT]PPV[pT]PPM[pS]PPTNR
notes: Ash1 transcriptional repressor, 18-residue peptide printed as AWSIpTPPVpTPPMpSPPTNR; the text says derived from Ash1 residues 283-299; the unlabelled form was used for NMR; also called triply phosphorylated Ash1 peptide; the peptide phosphorylated on all three CPDs
binding result [6]: binds

B2: Sic1: cyclin dependent kinase inhibitor, Cdc4 substrate; here phosphorylated on 4 to 6 CPD sites (protein, UniProt P38634 1-284, looked up)
Protein SIC1: MTPSTPPRSRGTRYLAQPSGNTSSSALMQGQKTPQKPSQNLVPVTPSTTKSFKNAPLLAPPNSNMGMTSPFNGLTSPQRSPFPKSSVKRTLFQFESHDNGTVREEQEPLGRVNRILFPTQQNVDIDAAEEEEEGEVLLPPSRPTSARQLHLSLERDEFDQTHRKKIIKDVPGTPSDKVITFELAKNWNNNSPKNDARSQESEDEEDIIINPVRVGKNPFASDELVTQEIRNERKRAMLRENPDIEDVITYVNKKGEVVEKRRLTDEEKRRFKPKALFQSRDQEH
modifications: phosphorylated
notes: here phosphorylated on 4 to 6 CPD sites
Kd [7]: ~1000 nM

B3: pSic1 (N-terminal targeting region of Sic1, residues 1-90, phosphorylated to completion by Cln2-Cdc28-Cks1 kinase) (domain or fragment, yeast, UniProt P38634 1-90, looked up)
chain: MTPSTPPRSRGTRYLAQPSGNTSSSALMQGQKTPQKPSQNLVPVTPSTTKSFKNAPLLAPPNSNMGMTSPFNGLTSPQRSPFPKSSVKRT
modifications: phosphorylated to completion by Cln2-Cdc28-Cks1 kinase; contains 7 of the 9 Sic1 CPD sites (the residues are not listed)
notes: also called pSic1 (1-90); pSic1^1-90
Kd [8]: 1300 nM
Kd [9]: 4960 nM
Kd ([3]; both partners purified): 4160 nM
Kd [10]: 600 nM
Kd [11]: 800 ± 120 nM
